In publication PMC11005723, “Development of Complementary Photo‐arginine/lysine to Promote Discovery of Arg/Lys hPTMs Interactomes” (Advanced Science, 2024):

Biological target: His‐DPF2PHD (residues 270–391) (UniProt Q92785)
Experiment: ITC; 25 °C, MicroCal PEAQ-ITC; protein in the cell titrated with 19 injections of peptide

Sequence of His‐DPF2PHD (residues 270–391) (Q92785 270-391): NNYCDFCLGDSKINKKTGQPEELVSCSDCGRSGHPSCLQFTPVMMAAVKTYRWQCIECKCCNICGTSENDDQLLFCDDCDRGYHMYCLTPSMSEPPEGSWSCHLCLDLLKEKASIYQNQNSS

- Kd: 3.5 µM
Substance: native H3R2 peptide (H3_(1‐15) without diazirine and biotin)
